{"source": "paper PMC4859490", "about": "“Why p-OMe- and p-Cl-β-Methylphenethylamines Display Distinct Activities upon MAO-B Binding” (PLoS ONE, 2016)", "substrate": "COc1ccc(C(C)CN)cc1", "test": "purified protein", "assay_type": "biochemical, Homo sapiens", "conditions": "FAD substrate binding site (modelled: aromatic cage facing FAD, Tyr398/Tyr435; methoxyl oxygen near Cys172)"}
{"protein": "MAO-B (Homo sapiens) (protein) SNKCDVVVVGGGISGMAAAKLLHDSGLNVVVLEARDRVGGRTYTLRNQKVKYVDLGGSYVGPTQNRILRLAKELGLETYKVNEVERLIHHVKGKSYPFRGPFPPVWNPITYLDHNNFWRTMDDMGREIPSDAPWKAPLAEEWDNMTMKELLDKLCWTESAKQLATLFVNLCVTAETHEVSALWFLWYVKQCGGTTRIISTTNGGQERKFVGGSGQVSERIMDLLGDRVKLERPVIYIDQTRENVLVETLNHEMYEAKYVISAIPPTLGMKIHFNPPLPMMRNQMITRVPLGSVIKCIVYYKEPFWRKKDYCGTMIIDGEEAPVAYTLDDTKPEGNYAAIMGFILAHKARKLARLTKEERLKKLCELYAKVLGSLEALEPVHYEEKNWCEEQYSGGCYTTYFPPGILTQYGRVLRQPVDRIYFAGTETATHWSGYMEGAVEAGERAAREILHAMGKIPEDEIWQSEPESVDVPAQPITTTFLERHLPSVPGLLRLIGLTTIFSATALGFLAHKRGLLVRV", "values": [{"measurement": "Km", "value": "87 ± 8", "unit": "µM"}, {"measurement": "kcat", "value": "0.233 ± 0.0167", "unit": "s⁻¹"}]}
